Biological target: FtsQ (Escherichia coli), P06136
Assay: not stated; unpublished results (Luirink and den Blaauwen); method not given
Details: remark: other sources report otherwise

Sequence of FtsQ (Escherichia coli), P06136 (P06136 whole entry): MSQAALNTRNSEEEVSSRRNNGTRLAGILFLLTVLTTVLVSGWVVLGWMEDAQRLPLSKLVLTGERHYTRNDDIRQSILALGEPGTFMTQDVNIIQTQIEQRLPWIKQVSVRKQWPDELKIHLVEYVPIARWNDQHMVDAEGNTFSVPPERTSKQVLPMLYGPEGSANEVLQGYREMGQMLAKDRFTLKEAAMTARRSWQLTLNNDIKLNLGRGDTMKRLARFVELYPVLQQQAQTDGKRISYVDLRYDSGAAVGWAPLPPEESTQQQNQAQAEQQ

stoichiometry N: 1
B1: FtsL, P0AEN4 1-121 (natural protein)
chain: MISRVTEALSKVKGSMGSHERHALPGVIGDDLLRFGKLPLCLFICIILTAVTVVTTAHHTRLLTAQREQLVLERDALDIEWRNLILEENALGDHSRVERIATEKLQMQHVDPSQENIVVQK
